Experimental data as given in US20180369375A1 (Merck Sharp & Dohme, published 2018).
Where a chain is given by its changes, count along the chain named. Names and notes keep the numbering of the source.

Key:
[1] = target: T1, human LAG3 (expressed on cells) (human); test: cell-based KinExA; BaF/3 cells stably transfected with human LAG3; n = 1
T1 construct: also called Hu LAG3; human LAG3 transfectants
T1 chain: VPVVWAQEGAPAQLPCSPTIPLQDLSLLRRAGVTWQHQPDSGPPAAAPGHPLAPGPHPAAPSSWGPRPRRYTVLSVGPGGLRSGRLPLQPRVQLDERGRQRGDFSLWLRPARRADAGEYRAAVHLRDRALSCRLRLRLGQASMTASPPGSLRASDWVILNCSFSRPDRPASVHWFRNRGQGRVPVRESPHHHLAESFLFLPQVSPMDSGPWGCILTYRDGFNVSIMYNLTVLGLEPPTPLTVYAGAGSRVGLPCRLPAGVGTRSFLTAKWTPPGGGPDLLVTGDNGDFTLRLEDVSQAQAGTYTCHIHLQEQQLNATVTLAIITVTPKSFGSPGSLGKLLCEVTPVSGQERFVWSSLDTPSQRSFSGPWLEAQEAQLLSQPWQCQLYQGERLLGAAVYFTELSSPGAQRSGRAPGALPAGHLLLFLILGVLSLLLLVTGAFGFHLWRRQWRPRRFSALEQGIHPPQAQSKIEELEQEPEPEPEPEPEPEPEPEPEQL
Procedure: (§1) The affinities of the anti-LAG3 antibodies for human and cynomolgous monkey LAG3 were determined using a cell based Kinetic Exclusion Assay (KinExA). Cell based KinExA can be used to measure the affinity of a molecule for a binding partner on a cell surface (Rathanaswami et al. Analylitical Biochemistry 373(1): 52-60 (2008); Xie et al. J. Immunol. Methods 304 (1-2): 1-14 (2005)). In this case, BaF/3 cells were stably transfected with human or cynomolgus monkey LAG3 proteins. Transfected cells or the parental BaF/3 control cell line were grown to a density of 1.7×10⁶ to 3.2×10⁶ cells per ml at 37° C., 120 RPM, 5% CO₂, in 1×RPMI 1640 media with 10% FBS, 10 ng/ml IL-3, 5 μg/ml puromycin. Cells were concentrated, mixed with 15 pM or 150 pM antibody in cell culture media and incubated 24 to 48 hours at room temperature while rotating at 20 to 30 RPM. Cells were present at a top concentration of 2×10⁷ cells per ml (parental BaF/3 or cynomolgus LAG3 transfectants) or 1×10⁷ cells per ml (human LAG3 transfectants) and diluted in a 2-fold, 18 member series. The cells were pelleted and free antibody in the supernatant was measured using a KinExA 3200 instrument (Sapidyne, Idaho, USA). […] Antibody on the beads was labeled with 1.5 μg/ml Alexa Fluor® 647 conjugated goat anti-human (Fab′)₂ (Jackson ImmunoResearch Laboratories), washed and the fluorescent signal was read all using the KinExA™ 3200. […]

[2] = target: T1, human LAG3 (expressed on cells); test: cell-based KinExA; BaF/3 cells stably transfected with human LAG3; average of n = 1-3
Procedure: as §1

[3] = target: T1, human LAG3 (expressed on cells); test: cell-based KinExA; BaF/3 cells stably transfected with human LAG3; n = 3
Procedure: as §1

[4] = target: T1, human LAG3 (expressed on cells); test: cell-based KinExA; human LAG3 on BaF/3 cells; ratio to ADI-12126
[5] = target: T1, human LAG3 (expressed on cells); test: cell-based KinExA; BaF/3 cells stably transfected with human LAG3; n = 2
Procedure: as §1

[6] = target: T2, human LAG3-His tagged recombinant protein (human); test: SPR, Biacore T200; fold against the parental antibody, as printed in this row
T2 construct: also called human LAG3-His protein; recombinant human LAG3
Procedure: (§2) Approximately 4000 RU of […], Fragment Specific (Jackson ImmunoResearch Catalog #115-006-071, Lot 81313) was immobilized via amine coupling chemistry onto a Series S CM4 sensor chip, catalog number BR-1005-34. Human anti-human LAG3 clones were injected over the immobilized anti-human surfaces at 1 ug/mL for a capture level of 40 RU. HBS-EP+ buffer (BR-1006-69) was used as the running buffer with a flow rate of 30 μL/min.
(§3) Varying concentrations of human LAG3-His protein ranging from 0.15 nM to 18.8 nM, at a flow rate of 40 μL/min were injected over the antibody surfaces. Following each injection cycle, the Series S CM4 chip surface was regenerated using one six second injection of 10 mM Glycine pH 1.5 solution followed by an injection of 12.5 mM NaOH solution at a flow rate of 60 μL/min.
(§4) Background subtraction binding sensorgrams were used for analyzing the rate constant of association (kₐ) and dissociation (kd), and the equilibrium dissociation constant KD. The resulting data sets were fitted with a 1:1 Langmuir Binding Model using the Biacore T200 evaluation software (version 2.0).

[7] = target: T2, human LAG3-His tagged recombinant …; test: SPR, Biacore T200; antibody captured, human LAG3-His as analyte, 1:1 Langmuir fit; n = 2
Procedure: as §2, §3, §4
Target sequence in this assay (P18627 23-450): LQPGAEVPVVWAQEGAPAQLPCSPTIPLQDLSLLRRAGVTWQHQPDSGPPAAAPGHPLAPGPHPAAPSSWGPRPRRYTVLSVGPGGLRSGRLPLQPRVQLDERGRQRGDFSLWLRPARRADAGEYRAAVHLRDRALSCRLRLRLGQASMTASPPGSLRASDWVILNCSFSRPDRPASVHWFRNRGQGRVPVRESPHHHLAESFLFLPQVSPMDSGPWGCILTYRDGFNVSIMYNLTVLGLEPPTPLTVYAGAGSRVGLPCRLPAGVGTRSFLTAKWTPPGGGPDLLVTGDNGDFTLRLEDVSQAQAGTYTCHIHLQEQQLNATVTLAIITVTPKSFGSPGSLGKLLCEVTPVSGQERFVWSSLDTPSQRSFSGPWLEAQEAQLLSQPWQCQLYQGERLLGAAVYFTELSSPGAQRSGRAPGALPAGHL

[8] = target: T2, human LAG3-His tagged recombinant …; test: SPR, Biacore T200; antibody captured, human LAG3-His as analyte, 1:1 Langmuir fit; average
Procedure: as §2, §3, §4
Target sequence in this assay (P18627 23-450): as above

[9] = target: T2, human LAG3-His tagged recombinant …; test: SPR, Biacore T200; antibody captured, human LAG3-His as analyte, 1:1 Langmuir fit; n = 1
Procedure: as §2, §3, §4
Target sequence in this assay (P18627 23-450): as above

B1: ADI-12126 M57G/M115L (antibody, V domains shown)
VH: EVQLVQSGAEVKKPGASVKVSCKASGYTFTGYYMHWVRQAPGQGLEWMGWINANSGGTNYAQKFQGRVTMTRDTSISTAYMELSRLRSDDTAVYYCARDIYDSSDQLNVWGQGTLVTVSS
VL: EIVLTQSPATLSLSPGERATLSCRASQSVSSYLAWYQQKPGQAPRLLIYDASNRATGIPARFSGSGSGTDFTLTISSLEPEDFAVYYCQQASIWPLTFGGGTKVEIKR
Kd [1]: 15 pM
Kd [2]: 18 pM
Kd [3]: 13 pM
KD/KD ref (ref = ADI-12126) [4]: 0.8
Kd [5]: 25 pM

B2: ADI-12126 M57A/M115L (antibody, V domains shown)
VH: EVQLVQSGAEVKKPGASVKVSCKASGYTFTGYYMHWVRQAPGQGLEWMGWINANSGATNYAQKFQGRVTMTRDTSISTAYMELSRLRSDDTAVYYCARDIYDSSDQLNVWGQGTLVTVSS
VL: B1 VL
Kd [1]: 17 pM
Kd [2]: 21 pM
Kd [3]: 17 pM
KD/KD ref (ref = ADI-12126) [4]: 0.9
Kd [5]: 30 pM

B3: ADI-12126 (Q1E, M57G, M115L) IgG4 S228P/Kappa (antibody, V domains shown)
VH: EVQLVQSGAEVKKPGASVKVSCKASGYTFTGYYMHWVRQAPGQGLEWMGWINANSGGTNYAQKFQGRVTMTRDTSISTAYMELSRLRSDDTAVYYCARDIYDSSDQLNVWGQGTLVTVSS
VL: B1 VL
notes: The parental residues are Q1, M57, M115
Fold weaker than ADI-12126 (M57, M115) IgG4 S228P/Kappa [6]: 4.6 fold
Kd [7]: 10 pM
Kd [8]: 10 pM
Kd [9]: 11 pM

B4: ADI-12126 (Q1E, M57S, M115L) IgG4 S228P/Kappa (antibody, V domains shown)
VH: B2 VH with A57S
VL: B1 VL
Kd [7]: 119 pM
Kd [8]: 127 pM
Kd [9]: 134 pM

B5: ADI-12126 (Q1E, M57T, M115L) IgG4 S228P/Kappa (antibody, V domains shown)
VH: B2 VH with A57T
VL: B1 VL
Kd [7]: 65 pM
Kd [8]: 66 pM
Kd [9]: 66 pM

B6: ADI-12126 (Q1E, M57Y, M115L) IgG4 S228P/Kappa (antibody, V domains shown)
VH: B2 VH with A57Y
VL: B1 VL
Kd [7]: 34 pM
Kd [8]: 33 pM
Kd [9]: 32 pM

B7: ADI-12126 (Q1E, M57V, M115L) IgG4 S228P/Kappa (antibody, V domains shown)
VH: B2 VH with A57V
VL: B1 VL
Kd [7]: 250 pM
Kd [8]: 266 pM
Kd [9]: 282 pM

B8: ADI-12126 (Q1E, M57A, M115L) IgG4 S228P/Kappa (antibody, V domains shown)
VH: B2 VH
VL: B1 VL
Kd [7]: 13 pM
Kd [8]: 13 pM
Kd [9]: 13 pM
